Laboratory results as given in patent publication US20220136009, “COMPOSITIONS AND METHODS FOR SELECTIVE GENE REGULATION” (Encoded Therapeutics, Inc., published 2022).

How the values were obtained:
Details in all cases: tags: NLS, HA tag
[1] = biological target: Construct 29 eTF (eZF z14-VP64) (synthetic construct); assay: cell_activity; endogenous SCN1A mRNA in HEK293 vs EGFP-KASH; p=0.164
Protocol: (§1) HEK293 cells were cultured per standard methods, and transfected (FugeneHD, Promega) with 3 ug plasmid carrying an engineered transcription factor or control construct per well of a 6-well plate. 48h following transfection, cells were collected and RNA was isolated (Qiagen RNeasy Mini kit), and DNase treated. RNA (3 ug) was reverse transcribed using OligoDT primers (Superscript IV, Invitrogen). cDNA samples were analyzed by qPCR using Phusion Polymerase (New England Biolabs) and SYBR Green I: (30s at 98° C., 40×[10 sec at 98° C., 15 sec at 66° C., 15 sec at 72° C.]). Primers against SCN1A (5′-[…]-3′ (SEQ ID NO: 185); 5′-[…]-3′ (SEQ ID NO: 186)) were used to quantify levels of endogenous SCN1A transcript, and relative levels of SCN1A expression were determined by the delta-delta Ct method with GAPDH as a reference gene (5′-[…]′-3′ (SEQ ID NO: 187); 5′-[…]-3′ (SEQ ID NO: 188)). Data are presented as fold changes relative to the control condition.

[2] = biological target: Construct 3 eTF (eZF z13-VP64) (synthetic construct); assay: cell_activity; endogenous SCN1A mRNA in HEK293 vs EGFP-KASH; p=0.149
Protocol: as §1

[3] = biological target: Construct 30 eTF (eZF z13-VPR) (synthetic construct); assay: cell_activity; SCN1A mRNA by RNAseq in iCell GABA neurons vs CBA-EGFP; SCN1A-selective among 40 neighbouring genes
Protocol: iCell GABA neurons (Cellular Dynamics) were plated in a 6-well plate (˜1E6 cells/well) and maintained per manufacturer's recommended protocol. 72h following plating, recombinant AAV (serotype AAV-DJ) expressing EGFP or activator (Construct 30), which comprises a zinc finger DBD fused to a VPR TAD driven by a CBA promoter) under the control of a CBA promoter was added to the culture media at approximately 2E11 genome copies/well.
One week following infection, RNA was isolated from cultured cells (Qiagen RNeasy Mini kit), and DNase treated. RNAseq libraries were prepared from the recovered RNA, using the TruSeq Stranded mRNA library kit (Illumina) and sequenced on an Illumina NextSeq (2×75 cycle paired end sequencing). Sequencing reads were aligned to human genome (RNASTAR) and differential expression analysis was performed with DESeq2. Data are presented as fold change with respect to control (AAVDJ-CBA-EGFP) samples (see FIG. 4). Results are shown in TABLE 14 and FIG. 4 illustrates the relative expression of endogenous SCN1A and the 40 nearest neighboring gene transcripts presented as fold changes relative to the control condition. Construct 30, as described in TABLE 1, was able to specifically increase expression of the SCN1A gene, or the Nav1.1 protein, as compared to the other genes examined. […]

[4] = biological target: Construct 4 eTF (eZF z1-VP64) (synthetic construct); assay: cell_activity; endogenous SCN1A mRNA in HEK293 vs EGFP-KASH; p=0.0097; also about 20-30% Scn1a upregulation in mouse hippocampus
Protocol: as §1

Chain of Construct 30 eTF (eZF z13-VPR) (synthetic construct) (chain, as listed by the source): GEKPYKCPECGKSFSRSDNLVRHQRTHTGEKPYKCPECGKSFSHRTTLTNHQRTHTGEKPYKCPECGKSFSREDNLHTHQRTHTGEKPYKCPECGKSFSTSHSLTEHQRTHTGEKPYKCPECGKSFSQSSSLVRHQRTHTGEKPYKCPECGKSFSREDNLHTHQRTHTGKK

B1: z14 target site (dsDNA)
DNA 1: GAGGATACTGCAGAGGTC
DNA 2: GACCTCTGCAGTATCCTC
**Q.** Which activity [1] does the source give for B1 here?
**A.** The activity was 8.68 fold.

B2: z13 target site (dsDNA)
DNA 1: TAGGTACCATAGAGTGAG
DNA 2: CTCACTCTATGGTACCTA
**Q.** Which results are given for B2?
**A.** activity [2]: 25.5 fold; activity [3]: 63 fold

B3: z1 target site (dsDNA)
DNA 1: CTAGGTCAAGTGTAGGAG
DNA 2: CTCCTACACTTGACCTAG
**Q.** Which activity [4] does the source give for B3 here?
**A.** Its activity is 5.12 fold.
